Reference: patent publication US20250032576A1, “CNP Therapy” (BIOMARIN PHARMACEUTICAL INC., priority 2021, published 2025)
“And” between values parts separate entries of the source, which are not always exact repeats. Equal entries are not always repeated. No end group written: not given here.

Tests used:
[1] = test system: mice deficient in Nf1 in type II collagen producing cells; settings: daily injections; cited from earlier work
[2] = test system: mouse model of Cardiofaciocutaneous syndrome using a Braf mutation (p.Q241R); settings: in vivo; cited from earlier work
[3] = molecular target: NPR2 variant Ala48Ser (human) (UniProt P20594); assay: cell-based or functional assay
[4] = molecular target: NPR2 variant Ala59Thr (human) (UniProt P20594); assay: cell-based or functional assay
[5] = molecular target: NPR2 variant Arg263His (human) (UniProt P20594); assay: cell-based or functional assay
[6] = molecular target: NPR2 variant Arg562Gln (human) (UniProt P20594); assay: cell-based or functional assay
[7] = molecular target: NPR2 variant Arg601Ser (human) (UniProt P20594); assay: cell-based or functional assay
[8] = molecular target: NPR2 variant Arg776Trp (human) (UniProt P20594); assay: cell-based or functional assay
[9] = molecular target: NPR2 variant Arg957Cys (human) (UniProt P20594); assay: cell-based or functional assay
[10] = molecular target: NPR2 variant Glu359Ala (human) (UniProt P20594); assay: cell-based or functional assay
[11] = molecular target: NPR2 variant Glu389Asp (human) (UniProt P20594); assay: cell-based or functional assay
[12] = molecular target: NPR2 variant Glu727Gln (human) (UniProt P20594); assay: cell-based or functional assay
[13] = molecular target: NPR2 variant Glu77Lys (human) (UniProt P20594); assay: cell-based or functional assay
[14] = molecular target: NPR2 variant Gly209Val (human) (UniProt P20594); assay: cell-based or functional assay
[15] = molecular target: NPR2 variant Gly21Arg (human) (UniProt P20594); assay: cell-based or functional assay
[16] = molecular target: NPR2 variant Gly917Arg (human) (UniProt P20594); assay: cell-based or functional assay
[17] = molecular target: NPR2 variant HIS508Asp (human) (UniProt P20594); assay: cell-based or functional assay
[18] = molecular target: NPR2 variant His552Arg (human) (UniProt P20594); assay: cell-based or functional assay
[19] = molecular target: NPR2 variant Ile494Ser (human) (UniProt P20594); assay: cell-based or functional assay
[20] = molecular target: NPR2 variant Leu1009Val (human) (UniProt P20594); assay: cell-based or functional assay
[21] = molecular target: NPR2 variant Leu956Gln (human) (UniProt P20594); assay: cell-based or functional assay
[22] = molecular target: NPR2 variant Lys1006Thr (human) (UniProt P20594); assay: cell-based or functional assay
[23] = molecular target: NPR2 variant Lys367Glu (human) (UniProt P20594); assay: cell-based or functional assay
[24] = molecular target: NPR2 variant Lys480Asn (human) (UniProt P20594); assay: cell-based or functional assay
[25] = molecular target: NPR2 variant Lys629Arg (human) (UniProt P20594); assay: cell-based or functional assay
[26] = molecular target: NPR2 variant Pro301Ser (human) (UniProt P20594); assay: cell-based or functional assay
[27] = molecular target: NPR2 variant Ser522Pro (human) (UniProt P20594); assay: cell-based or functional assay
[28] = molecular target: NPR2 variant Thr297Met (human) (UniProt P20594); assay: cell-based or functional assay
[29] = molecular target: NPR2 variant Thr377Asn (human) (UniProt P20594); assay: cell-based or functional assay
[30] = molecular target: NPR2 variant Thr907Met (human) (UniProt P20594); assay: cell-based or functional assay
[31] = molecular target: NPR2 variant Trp42Arg (human) (UniProt P20594); assay: cell-based or functional assay
[32] = molecular target: NPR2 variant Val553Leu (human) (UniProt P20594); assay: cell-based or functional assay
[33] = molecular target: NPR2 variant Val965Asp (human) (UniProt P20594); assay: cell-based or functional assay
[34] = test system: children aged 3 to 60 months; set-up: species or system human; settings: in vivo, sc
Description: See also PCT Application No. PCT/US22/73605.

clinical [35] = settings: human, in vivo
Description: Studies from rodent pups, growing lambs and children support the view that circulating levels of CNP products in plasma (CNP and NTproCNP) are sourced largely from growth plate or closely related tissues (Espiner 2018, supra). Measurement of any possible impact on endogenous proCNP production of administered CNP 1-37 Pro Gly (which strongly cross-reacts with CNP but not NTproCNP assay) is therefore only feasible using plasma concentrations of NTproCNP adjusted for age and sex (SDS). […] It is instructive to compare these dynamic changes in CNP with those found in short non Ach children of similar age starting daily doses of Human Growth Hormone (HGH) (Olney, et al. Clin Endocrinol (Oxf) 85:561-568, 2016). In that setting, similar inflections in AGV were associated with increase in NTproCNP (mean 11 pmol/L, delta 22% at day 21) in contrast to the concurrent fall of NTproCNP (approximately 6 pmol/L, range 3-11 pmol/L, delta-12%) at Day 29 during 15-30 μg/kg/d Vosoritide treatment in Cohorts 3 and 4. […] These kinetic responses could relate to the estimated times (approximately 20-22 days) (Sansone et al., J Pediatr Orthop 29:61-67, 2009) for recruited chondrocytes to traverse the respective zones of the expanding growth plate and populate the primary spongiosa.
This temporal constraint may relate to the early growth spurt observed in many of the children studied. […]

[36] = human, in vivo
Description: (§1) In an ongoing Phase II study of CNP therapy in children, a group of patients age 3 to 6 months (cohort 3) were administered CNP (BMN111) at a dose of 30 μg/kg daily subcutaneously, and changes in annualized growth volume, changes in height, and skull morphology were measured.

clinical [37] = settings: human, in vivo; for Tmax: Median [range] Tmax; for Cmax: Mean (SD) Cmax
Description: as §1

For “C-type natriuretic peptide (GLSKGCFGLKLDRIGSMSGLGC; ends and bridges not checked; cysteine pairing not given here; UniProt P23582 105-126, looked up) [CNP, small, single chain peptide having a 17-amino acid loop structure at the C-terminal end]”, the ERK phosphorylation [1] is given as “decreased ERK phosphorylation”, the short stature [1] is given as “corrected the short stature” and the body length [2] is given as “increases in body length”.

In the case of “C-type natriuretic peptide (CNP) (from UniProt P23582 105-126) (ligand)”, the average phenotype (cGMP, normalized to RedLuciferase, WT set to 1) (relative to WT = 1) [3] is reported as 0.0679, the average phenotype (cGMP, normalized to RedLuciferase, WT set to 1) (relative to WT = 1) [4] is reported as 3.74 and the average phenotype (cGMP, normalized to RedLuciferase, WT set to 1) (relative to WT = 1) [5] is reported as 1.86. The average phenotype (cGMP, normalized to RedLuciferase, WT set to 1) (relative to WT = 1) [6] was 1.55 and 1.63, the average phenotype (cGMP, normalized to RedLuciferase, WT set to 1) (relative to WT = 1) [7] was 0.0595 and the average phenotype (cGMP, normalized to RedLuciferase, WT set to 1) (relative to WT = 1) [8] was 0.0131. For the same molecule, the average phenotype (cGMP, normalized to RedLuciferase, WT set to 1) (relative to WT = 1) [9] was 0.0295 and 0.0155, the average phenotype (cGMP, normalized to RedLuciferase, WT set to 1) (relative to WT = 1) [10] was 3 and the average phenotype (cGMP, normalized to RedLuciferase, WT set to 1) (relative to WT = 1) [11] was 0.0708. For the same molecule, the average phenotype (cGMP, normalized to RedLuciferase, WT set to 1) (relative to WT = 1) [12] was 1.7, the average phenotype (cGMP, normalized to RedLuciferase, WT set to 1) (relative to WT = 1) [13] was 0.0499 and the average phenotype (cGMP, normalized to RedLuciferase, WT set to 1) (relative to WT = 1) [14] was 0.0886. For the same molecule, the average phenotype (cGMP, normalized to RedLuciferase, WT set to 1) (relative to WT = 1) [15] was 2.78, the average phenotype (cGMP, normalized to RedLuciferase, WT set to 1) (relative to WT = 1) [16] was 0.0171 and the average phenotype (cGMP, normalized to RedLuciferase, WT set to 1) (relative to WT = 1) [17] was 1.74. The average phenotype (cGMP, normalized to RedLuciferase, WT set to 1) (relative to WT = 1) [18] was 1.79, the average phenotype (cGMP, normalized to RedLuciferase, WT set to 1) (relative to WT = 1) [19] was 0.0364 and the average phenotype (cGMP, normalized to RedLuciferase, WT set to 1) (relative to WT = 1) [20] was 0.0847. It also gave an average phenotype (cGMP, normalized to RedLuciferase, WT set to 1) (relative to WT = 1) [21] of 0.0243, an average phenotype (cGMP, normalized to RedLuciferase, WT set to 1) (relative to WT = 1) [22] of 0.0551 and an average phenotype (cGMP, normalized to RedLuciferase, WT set to 1) (relative to WT = 1) [23] of 0.0144. It also gave an average phenotype (cGMP, normalized to RedLuciferase, WT set to 1) (relative to WT = 1) [24] of 1.69, an average phenotype (cGMP, normalized to RedLuciferase, WT set to 1) (relative to WT = 1) [25] of 1.49 and an average phenotype (cGMP, normalized to RedLuciferase, WT set to 1) (relative to WT = 1) [26] of 0.0848. The average phenotype (cGMP, normalized to RedLuciferase, WT set to 1) (relative to WT = 1) [27] was 0.0567, the average phenotype (cGMP, normalized to RedLuciferase, WT set to 1) (relative to WT = 1) [28] was 0.0302 and the average phenotype (cGMP, normalized to RedLuciferase, WT set to 1) (relative to WT = 1) [29] was 0.0106. For the same molecule, the average phenotype (cGMP, normalized to RedLuciferase, WT set to 1) (relative to WT = 1) [30] was 0.0146, the average phenotype (cGMP, normalized to RedLuciferase, WT set to 1) (relative to WT = 1) [31] was 0.0288 and the average phenotype (cGMP, normalized to RedLuciferase, WT set to 1) (relative to WT = 1) [32] was 1.52. It also gave an average phenotype (cGMP, normalized to RedLuciferase, WT set to 1) (relative to WT = 1) [33] of 0.0158.

With CC[C@H](C)[C@@H]1NC(=O)[C@H](CCCNC(=N)N)NC(=O)[C@H](CC(=O)O)NC(=O)[C@H](CC(C)C)NC(=O)[C@H](CCCCN)NC(=O)[C@H](CC(C)C)NC(=O)CNC(=O)[C@H](Cc2ccccc2)NC(=O)[C@@H](NC(=O)CNC(=O)[C@H](CCCCN)NC(=O)[C@H](CO)NC(=O)[C@H](CC(C)C)NC(=O)CNC(=O)[C@H](CCCCN)NC(=O)[C@H](CCCCN)NC(=O)[C@H](CC(N)=O)NC(=O)[C@H](C)NC(=O)CNC(=O)[C@H](CCCCN)NC(=O)[C@H](Cc2ccc(O)cc2)NC(=O)[C@H](CCCCN)NC(=O)[C@H](CCCNC(=N)N)NC(=O)[C@H](C)NC(=O)[C@H](CC(N)=O)NC(=O)[C@@H]2CCCN2C(=O)[C@H](Cc2c[nH]cn2)NC(=O)[C@H](CCC(=O)O)NC(=O)[C@H](CCC(N)=O)NC(=O)CNC(=O)[C@@H]2CCCN2)CSSC[C@@H](C(=O)O)NC(=O)CNC(=O)[C@H](CC(C)C)NC(=O)CNC(=O)[C@H](CO)NC(=O)[C@H](CCSC)NC(=O)[C@H](CO)NC(=O)CNC1=O [Vosoritide] the overall adverse-event profile [34] was “generally mild”, the half-life (clinical [35]) was 28 min and the “Median [range] Tmax” value ([36]; 15 ug/kg) was 15.0 [7.0, 31.0] min. The “Mean (SD) Cmax” value ([36]; 30 ug/kg) was 13,500 (6770) pg/mL, the “Mean (SD) AUC0-t” value ([36]; sc, 30 ug/kg) was 323,000 (129,000) pg-min/mL and the Tmax (clinical [37]; 15 ug/kg) was 15 min. It also gave a Cmax (clinical [37]; 30 ug/kg) of 10.1 ng/mL, a Tmax (clinical [37]; 30 ug/kg) of 14 min and a Cmax (clinical [37]; sc, 15 ug/kg) of 4.43 ng/mL. The half-life (clinical [37]; sc, 15 ug/kg, Mean (SD) t1/2) was 21.7 min, the Tmax (clinical [37]; sc, 15 ug/kg) was 15 min and the AUC(0-t) (clinical [37]; sc, 30 ug/kg, Mean (SD) AUC0-t) was 9.12 ng·h/mL. For the same molecule, the Cmax (clinical [37]; sc, 30 ug/kg) was 14.5 ng/mL.
